Among the data in the supplement of paper PMC10567573 are protein stability index values, retold here.

The data set is described as follows: protein stability index of a GFP-peptide fusion (GPS, HEK-293T) (PSI 1-6); higher = more stable.
Setting [1] is: treatment: DMSO, c terminus: native.
The mark [2] stands for this setting: treatment: MLN4924 1 uM, 8 h, c terminus: native.
Setting [3] is: treatment: DMSO, c terminus: a fixed tail appended.
[4] abbreviates: treatment: MLN4924 1 uM, 8 h, c terminus: a fixed tail appended.

± gives the standard deviation.
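Note: 24-mer peptide tiles fused after GFP, lentivirally expressed, FACS-sorted into six equal bins by GFP/DsRed ratio, decoded by Illumina sequencing, PSI is the read-weighted mean bin number.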

For PMMKLKRHFVAQKYKKQIDHMYH [ACSBG2], the protein stability index by setting is: under setting [1], 2.7 ± 0.32; under setting [2], 2.75 ± 0.32.
For the sequence MTHQNVELFKELSINVMKQLIGSS [GMCL1], the protein stability index is, setting by setting: under setting [3], 2.35 ± 0.21; under setting [4], 2.37 ± 0.57.
For the sequence KLRAMKELSEAAEAQHGPHSAVAR [STX11], the protein stability index runs as follows: under setting [3], 4.51 ± 0.13; under setting [4], 4.6 ± 0.17.
Taken in the same sequence, the figures for IIYKQTKGGVQNFNKDLVQDCGFE [CEP70] were 1.96 ± 0.42 and 2.66 ± 0.22.
Turning to SWRTLAILVNLQGTVVFLLSLFIP [SLC22A15], the protein stability index amounted to 3.4 ± 0.53 under setting [3] and 2.89 ± 0.11 under setting [4].
The matching figures for KTSELLVRKWRVKSALGAMGQWQL [DPCD]: 2.56 ± 0.76 and 2.47 ± 0.41.
Take FFCEGVKIIFRVGLVLLKHALGSP [TBC1D10A]: the protein stability index reads like this: under setting [3], 1.98 ± 0.54; under setting [4], 2.11 ± 0.36.
Take PLLHKDSASLEVVKKDHVALQVPR [CBY2]: the protein stability index by setting is: under setting [3], 4.31 ± 0.095; under setting [4], 4.3 ± 0.49.
MLLFLSVPQPRPPGARTRAGAARV [FBXO33]: the protein stability index came to 2.31 ± 0.26 under setting [3] and 2.13 ± 0.21 under setting [4].
Take TIDAVPNAIPGRTDIELEIYGMEG [ZNF207]: the protein stability index was 3.86 ± 0.27 under setting [3] and 4 ± 0.093 under setting [4].
Turning to PAQLSEDITRYYLCLQLRDDIVSG [EPB41L3], the protein stability index runs as follows: under setting [3], 2.3 ± 0.24; under setting [4], 2.43 ± 0.35.
In the case of APNSLSAPTMLHNSSGDFSQAHST [TRAF3IP2], the protein stability index is, setting by setting: under setting [3], 4.84 ± 0.14; under setting [4], 4.78 ± 0.28.
For TVEPRLLVADLLYWKDTRTSGVVF [RTN2], the protein stability index is, setting by setting: under setting [3], 2.97 ± 0.61; under setting [4], 2.98 ± 0.6.
The sequence ILESSQTLLSVLKREAGNLTKATA [SSNA1] gave a protein stability index under setting [3] of 2.69 ± 0.46 and a protein stability index under setting [4] of 2.99 ± 0.29.
For the sequence RSVRVRLLLSFWKETDPLTFNFIS [PLD5], the protein stability index is 2.89 ± 0.71 under setting [3] and 2.54 ± 0.18 under setting [4].
Taken in the same sequence, the figures for RHSYQVYRQPIPVQELVLEDLQDG [NET1] were 4.38 ± 0.083 and 4.24 ± 0.24.
Take HRLLNMARNNNDPGRLTEALCLEV [RNF180]: the protein stability index came out at 3.89 ± 0.33 under setting [3] and 3.96 ± 0.28 under setting [4].
On to FEKSRYETYIHLLAMKIKVGSDDL [PSD2], for which the protein stability index is, setting by setting: under setting [3], 2.53 ± 1; under setting [4], 2.55 ± 0.61.
Turning to KPDDEVKETAHDLDVKSPPEPRSE [RIPK4], the protein stability index under setting [3] came to 5.63 ± 0.34 and the protein stability index under setting [4] stood at 5.61 ± 0.37.
As to AIPYLEHIIHVWEETGSRFHNCLI [VPS39], the protein stability index by setting is: under setting [3], 2.31 ± 0.4; under setting [4], 2.36 ± 0.54.
VLYPDGQAQMIHPKPADFRNPGPG [INTS4]: the protein stability index came out at 3.59 ± 0.098 under setting [3] and 3.67 ± 0.3 under setting [4].
THALAEWASRREAFAQRPSSAPDL [CDC25B] showed a protein stability index under setting [3] of 3.91 ± 0.26 and a protein stability index under setting [4] of 4.01 ± 0.082.
Taken in the same sequence, the figures for PNYLANPAFPFIYTPTAEDSAQMQ [ANKRD40] were 3.85 ± 0.28 and 4.08 ± 0.26.
In the case of TNDRTASQGQWGRAWEVDWFSLAS [DHCR7], the protein stability index worked out at 2.61 ± 0.56 under setting [3] and 2.68 ± 0.33 under setting [4].
As for PHQREKIDKEIELHRILHHKHVVQ [PLK2], the protein stability index reads like this: under setting [3], 3.48 ± 0.19; under setting [4], 3.73 ± 0.34.
The matching figures for DENEDVNFDHFEILRAIGKGSFGK [STK32A]: 4.22 ± 0.18 and 4.14 ± 0.17.
Taken in the same sequence, the figures for KLLPHQPRIVEMKKGSNGYGFYLR [PDZK1] were 2.37 ± 0.12 and 2.47 ± 0.6.
The matching figures for EAVSDSTPFLTNHGAHKAEKKLFE [ZNF263]: 4.65 ± 0.5 and 4.42 ± 0.41.
Take TAHASAQSLAGGSRRTKEEELQC [TPD52L1]: the protein stability index stood at 4.99 ± 0.1 under setting [1] and 4.88 ± 0.17 under setting [2].
Regarding EFFLEQTKKKGVKRPARLHTKPSQ [NOP53], the protein stability index by setting is: under setting [3], 3.66 ± 0.55; under setting [4], 3.68 ± 0.5.
Taken in the same sequence, the figures for LESSYNDEMLSYLPGGTTGLQLPS [TFE3] were 3.94 ± 0.18 and 3.88 ± 0.27.
Regarding RVIKCDPDCLRACQEQIEALLESS [CCND1], the protein stability index by setting is: under setting [3], 3.3 ± 0.3; under setting [4], 3.19 ± 0.2.
For RNRKLKCTFSLTHPANRSCRETGS [SLC22A15], the protein stability index by setting is: under setting [3], 3.37 ± 0.16; under setting [4], 3.44 ± 0.23.
Turning to HQGEEEGPLDIWAVVKPGNTKEKI [FBXO34], the protein stability index runs as follows: under setting [3], 4.6 ± 0.15; under setting [4], 4.76 ± 0.27.
As to WPKLCPCLRSGIGSSQALGPSPPL [MYCL], the protein stability index turned out to be 2.46 ± 0.41 under setting [3] and 2.47 ± 0.14 under setting [4].
As for MLDHHPVAITVEVKQEEDIKPPPP [RAD54B], the protein stability index under setting [3] came to 5.08 ± 0.22 and the protein stability index under setting [4] is 5.19 ± 0.1.
With KKFRSSTSSSLGDKSEYLEMEEGV [KCNA4], the protein stability index is, setting by setting: under setting [3], 4.6 ± 0.37; under setting [4], 4.91 ± 0.28.
As to QQYQEQLDKSTKLVETAIQSLDEP [TRIM63], the protein stability index runs as follows: under setting [3], 5.1 ± 0.32; under setting [4], 5.07 ± 0.086.
Consider NVPSSSLPAQPNRKPGMSSTARRS [CHMP4C], for which the protein stability index under setting [3] was 4.9 ± 0.32 and the protein stability index under setting [4] stood at 4.99 ± 0.13.
Consider CKKLHIPLKAQNDLDISRIKRGNT [P2RY14], for which the protein stability index was determined as 3.44 ± 0.33 under setting [3] and 3.65 ± 0.14 under setting [4].
The matching figures for WNDCISSGLRGGILIELAMRGRIY [GOLPH3L]: 2.89 ± 0.45 and 2.48 ± 0.53.
LSFEQMTDAHVWNKSVTLYTVKDK [NLN] returned a protein stability index under setting [3] of 2.61 ± 0.61 and a protein stability index under setting [4] of 3.09 ± 0.63.
Taken in the same sequence, the figures for GVRSREDAQGSEMVTCKSEFYHDE [GAN] were 5.22 ± 0.12 and 5.08 ± 0.47.
Consider ASQSLGSPMYFFLASLSFIDTVYS [OR4A15], for which the protein stability index runs as follows: under setting [3], 2.89 ± 0.57; under setting [4], 2.67 ± 0.96.
Turning to LAAAVVQEHSNSVGGQDTGATWRT [C18orf25], the protein stability index by setting is: under setting [3], 4.22 ± 0.23; under setting [4], 4.18 ± 0.21.
With IAHRGERRGIGGIFFDDLDSPSKE [CPOX], the protein stability index is 4.57 ± 0.4 under setting [3] and 4.72 ± 0.21 under setting [4].
With AGFAQLTHLLMGLAGGKLILSLEG [HDAC6], the protein stability index under setting [3] came out at 3.56 ± 0.82 and the protein stability index under setting [4] is 3.05 ± 0.82.
As to ADEDDDRDVALQIHFTLIQAFCCE [GADD45A], the protein stability index amounted to 2.28 ± 0.35 under setting [3] and 2.36 ± 0.085 under setting [4].
For the sequence RHQKIHSGEKPYKCSDCGKAFLTK [ZNF649], the protein stability index was 3.07 ± 0.069 under setting [3] and 3.25 ± 0.31 under setting [4].
The matching figures for NWRRKHEEFIATIRAAKGLDQALK [ZC2HC1A]: 2.71 ± 0.18 and 2.78 ± 0.24.
The matching figures for GGKRRRDDISVDSLDFTKKILHTA [PPP2R2C]: 3.17 ± 0.21 and 3.77 ± 0.36.
The matching figures for AFASTCLLSRFSVGIFHLMQIAVP [TMEM175]: 3.02 ± 0.29 and 3 ± 0.22.
